The nature of this data set: protein stability index of a GFP-peptide fusion (yeast GPS) (PSI 1-4); higher = more stable; sorted into four equal gates, so the index is relative within each strain. The method in brief: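 Tiled 17-residue peptides from yeast proteins were fused downstream of GFP on a plasmid that also expresses Cherry, and the pooled library was carried in yeast. Mid-log cultures grown in leucine-free medium were sorted into four equal gates by GFP/Cherry fluorescence ratio. Plasmids from each gate were PCR-amplified and Illumina-sequenced, and reads were assigned to strains by barcodes. Each peptide's protein stability index is the sum, over gates, of the gate's read frequency multiplied by its gate number.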

39 sequences from the supplement of paper PMC9732359 can be followed below.

± gives the uncertainty stated by the source.

As to PPQDAEGWFYKRAASVA [RPS19A], the protein stability index is 2.9 ± 0.27 (doa10∆), 1.42 ± 0.11 (pdr5∆), 1.53 ± 0.14 (san1∆) and 1.56 ± 0.11 (ubr1∆).

In the case of MKLNILDERFASRVALN [IRR1], the protein stability index is, setting by setting: (doa10∆) 1.54 ± 0.051; (pdr5∆) 2.31 ± 0.062; (san1∆) 2.17 ± 0.11; (ubr1∆) 2.03 ± 0.054.

In the case of PIMLRSKNCYLSEATES [RPB2], the protein stability index by setting is: (doa10∆) 1.23 ± 0.075; (pdr5∆) 1.46 ± 0.11; (san1∆) 1.1 ± 0.15; (ubr1∆) 1.14 ± 0.061.

As for KRCLFESLSNEAALKAN [RPO31], the protein stability index (ubr1∆) is 2.84 ± 0.22.

FVIPILIKMSRSPPRPP [PRP28]: the protein stability index reads like this: (doa10∆) 2.04 ± 0.069; (pdr5∆) 1.93 ± 0.065; (san1∆) 2.01 ± 0.088; (ubr1∆) 2.14 ± 0.073.

For the sequence TFSSSISTYISTDELVG [POP8], the protein stability index stood at 3.02 ± 0.087 (doa10∆), 2.93 ± 0.057 (pdr5∆), 2.9 ± 0.072 (san1∆) and 3.02 ± 0.069 (ubr1∆).

PAPSIPSTGFKFSLPFE [YLR335W/NUP2] gave a protein stability index (doa10∆) of 2.53 ± 0.1, a protein stability index (pdr5∆) of 2.94 ± 0.072, a protein stability index (san1∆) of 2.92 ± 0.088 and a protein stability index (ubr1∆) of 3.05 ± 0.086.

On to LLYADSLTAEAMTAAEH [CYT1], for which the protein stability index (doa10∆) stood at 2.34 ± 0.056, the protein stability index (pdr5∆) was 2.67 ± 0.054, the protein stability index (san1∆) was determined as 2.78 ± 0.057 and the protein stability index (ubr1∆) worked out at 2.58 ± 0.041.

Regarding SLNLGIGIVEIAHENEQ [SRB8], the protein stability index is 1.43 ± 0.11 (doa10∆), 2.07 ± 0.084 (pdr5∆), 2.52 ± 0.11 (san1∆) and 2.08 ± 0.087 (ubr1∆).

VFQDNVYKIYNHVMPLK [SIN4]: the protein stability index came out at 1.65 ± 0.07 (doa10∆), 1.69 ± 0.096 (pdr5∆), 1.69 ± 0.098 (san1∆) and 1.62 ± 0.049 (ubr1∆).

For DYRVLVDKSRKVAHTSY [PRE8], the protein stability index (doa10∆) turned out to be 2.81 ± 0.12, the protein stability index (pdr5∆) is 2.48 ± 0.13, the protein stability index (san1∆) came out at 2.3 ± 0.13 and the protein stability index (ubr1∆) worked out at 2.08 ± 0.095.

MTTVSGRDAFHLRVRVH [RPL10] displayed a protein stability index (doa10∆) of 1.33 ± 0.16.

In the case of LLKPFHVKVNDKKEMTI [SIR3], the protein stability index (doa10∆) was determined as 3.05 ± 0.18, the protein stability index (pdr5∆) was 2.58 ± 0.15, the protein stability index (san1∆) was determined as 2.21 ± 0.14 and the protein stability index (ubr1∆) was found to be 2.68 ± 0.14.

In the case of LLETITYVLNTWTNSKI [YML103C/NUP188], the protein stability index was found to be 1.85 ± 0.05 (doa10∆), 2.21 ± 0.05 (pdr5∆), 2.14 ± 0.066 (san1∆) and 2.29 ± 0.036 (ubr1∆).

Take QFSLPNGDNSTTTNTDQ [SNF12]: the protein stability index reads like this: (doa10∆) 2.47 ± 0.047; (pdr5∆) 2.2 ± 0.055; (san1∆) 2.318 ± 0.014; (ubr1∆) 2.31 ± 0.05.

In the case of PSVIHSSVEMLLDVVKG [YDL116W/NUP84], the protein stability index reads like this: (doa10∆) 2.56 ± 0.085; (pdr5∆) 1.85 ± 0.11; (san1∆) 2.2 ± 0.057; (ubr1∆) 1.42 ± 0.038.

In the case of MLLCVSYFLQERYFDCC [PCI8], the protein stability index reads like this: (doa10∆) 1.19 ± 0.091; (pdr5∆) 1.26 ± 0.058; (san1∆) 1.55 ± 0.1; (ubr1∆) 1.3 ± 0.092.

For the sequence TNLKNHPAYLFKGLETP [YLR018C/POM34], the protein stability index (doa10∆) turned out to be 2.38 ± 0.055, the protein stability index (pdr5∆) was 2.51 ± 0.039, the protein stability index (san1∆) was 1.59 ± 0.061 and the protein stability index (ubr1∆) turned out to be 2.36 ± 0.028.

For GNKNQFEPSISRSNFQG [LRP1], the protein stability index reads like this: (doa10∆) 2.76 ± 0.13; (pdr5∆) 2.7 ± 0.16; (san1∆) 2.74 ± 0.073; (ubr1∆) 2.34 ± 0.21.

For the sequence VLDIVPGSSITETEVER [SRB4], the protein stability index was 3.04 ± 0.13 (doa10∆), 2.88 ± 0.15 (pdr5∆), 2.57 ± 0.18 (san1∆) and 2.83 ± 0.12 (ubr1∆).

For TNSHYNNTNTDNVSGLT [SNF2], the protein stability index was 3.19 ± 0.062 (doa10∆), 3.31 ± 0.046 (pdr5∆), 3.37 ± 0.044 (san1∆) and 3.25 ± 0.034 (ubr1∆).

Turning to TQYATSQKTKTIQSDLN [SMC2], the protein stability index came to 2.21 ± 0.088 (doa10∆), 2.34 ± 0.072 (pdr5∆), 2.1 ± 0.11 (san1∆) and 2.85 ± 0.05 (ubr1∆).

With RIFISNVSENQPWQMDT [SNF12], the protein stability index is, setting by setting: (doa10∆) 2.98 ± 0.052; (pdr5∆) 3.17 ± 0.072; (san1∆) 3.09 ± 0.04; (ubr1∆) 3.11 ± 0.054.

Turning to RQLSPHTLMSFAGEAGD [PRE1], the protein stability index is, setting by setting: (doa10∆) 1.69 ± 0.052; (pdr5∆) 1.87 ± 0.057; (san1∆) 1.83 ± 0.12; (ubr1∆) 1.96 ± 0.041.

Turning to NKRLCDEIATIQSKRLR [RPS17A], the protein stability index is 2.75 ± 0.081 (doa10∆), 2.94 ± 0.063 (pdr5∆), 3.1 ± 0.046 (san1∆) and 3.22 ± 0.071 (ubr1∆).

Turning to DLRLGSQSLGVSNKFEK [PUP3], the protein stability index by setting is: (doa10∆) 3.52 ± 0.14; (pdr5∆) 3.52 ± 0.16; (san1∆) 2.94 ± 0.13; (ubr1∆) 3.62 ± 0.13.

Consider YLLPDDFHFSTDRITRL [BRN1], for which the protein stability index by setting is: (doa10∆) 2.43 ± 0.056; (pdr5∆) 2.5 ± 0.056; (san1∆) 2.6 ± 0.063; (ubr1∆) 2.79 ± 0.048.

As for SKKAEKTGTKPAAVFTE [RPL4A], the protein stability index turned out to be 2.52 ± 0.068 (doa10∆), 2.79 ± 0.085 (pdr5∆), 2.44 ± 0.072 (san1∆) and 2.76 ± 0.061 (ubr1∆).

For the sequence MTMASKSLEVVNADTVG [NSL1], the protein stability index (doa10∆) stood at 2.96 ± 0.078, the protein stability index (pdr5∆) is 2.82 ± 0.075, the protein stability index (san1∆) came out at 2.7 ± 0.068 and the protein stability index (ubr1∆) was found to be 2.38 ± 0.053.

For YFAKLREYLEEYKSLFV [RPP0], the protein stability index was determined as 2.46 ± 0.19 (doa10∆), 2.65 ± 0.15 (pdr5∆), 2.98 ± 0.073 (san1∆) and 3.24 ± 0.095 (ubr1∆).

For PRLLGPQLSKAGKFPTP [RPL1A], the protein stability index reads like this: (doa10∆) 2.86 ± 0.066; (pdr5∆) 2.8 ± 0.057; (san1∆) 2.74 ± 0.052; (ubr1∆) 2.64 ± 0.035.

As to SETADETLENNIVSVLT [RPN11], the protein stability index was 2.73 ± 0.11 (doa10∆), 2.94 ± 0.076 (pdr5∆), 2.75 ± 0.11 (san1∆) and 2.78 ± 0.097 (ubr1∆).

For the sequence HVRCGTAFALGIACAGK [RPN2], the protein stability index was 1.27 ± 0.081 (doa10∆), 1.58 ± 0.13 (pdr5∆), 1.46 ± 0.23 (san1∆) and 1.53 ± 0.076 (ubr1∆).

Turning to IANDNVITPHFITNVQS [SWI1], the protein stability index runs as follows: (doa10∆) 2.14 ± 0.082; (pdr5∆) 2.68 ± 0.076; (san1∆) 2.41 ± 0.092; (ubr1∆) 2.2 ± 0.053.

Regarding NDLDEDDIYDISLLKNR [RPN4], the protein stability index amounted to 2.87 ± 0.12 (doa10∆), 3.2 ± 0.11 (pdr5∆), 3.23 ± 0.14 (san1∆) and 3.22 ± 0.2 (ubr1∆).

As for LGYNFDGSAIEDDDIRS [SNF5], the protein stability index was found to be 3.39 ± 0.086 (doa10∆), 3.26 ± 0.072 (pdr5∆), 3.35 ± 0.068 (san1∆) and 3.35 ± 0.05 (ubr1∆).

As for PRLDTSKEFSAYVSGLF [YJR042W/NUP85], the protein stability index reads like this: (doa10∆) 2.33 ± 0.13; (pdr5∆) 2.08 ± 0.082; (san1∆) 2.05 ± 0.13; (ubr1∆) 3.12 ± 0.13.

Take EVYKAEKDAVSVFGFRT [RPS24A]: the protein stability index by setting is: (doa10∆) 3.24 ± 0.15; (pdr5∆) 3.12 ± 0.086; (san1∆) 3.36 ± 0.07; (ubr1∆) 3.31 ± 0.13.

In the case of LQNDLIHKIQNDNNLKK [RPN5], the protein stability index worked out at 2.96 ± 0.081 (doa10∆), 3.24 ± 0.068 (pdr5∆), 3.11 ± 0.054 (san1∆) and 3.12 ± 0.065 (ubr1∆).
